In the supplement of paper PMC7877785:
± gives the uncertainty stated by the source.

Experiment: self-splicing fitness, log relative to wild type (ln ratio); higher = more splicing; Tetrahymena group I intron in knt gene, E. coli kanamycin selection, DiMSum; sequences stand for … in CUCUCU…GGAGGGAAAAGUUAUCAGGCAUGCACCUGGUAGCUAGUCUUUAAACCAAUAGAUUGCAUCGGUUUAAAAGGCAAGACCGUCAAAUUGCGGGAAAGGGGUCAACAGCCGUUCAGUACCAAGUCUCAGGGGAAACUUUGAGAUGGCCUUGCAAAGGGUAUGGUAAUAAGCUGACGGACAUGGUCCUAACCACGCAGCCAAGUCCUAAGUCAACAGAUCUUCUGUUGAUAUGGAUGCAGUUCACAGACUAAAUGUCGGUCGGGGAAGAUGUAUUCUUCUCAUAAGAUAUAGUCGGACCUCUCCUUAAUGGGAGCUAGCGGAUGAAGUGAUGCAACACUGGAGCCGCUGGGAACUAAUUUGUAUGCGAAAGUAUAUUGAUUAGUUUUGGAGUACUCGUGGUCG
In short: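 DiMSum derived fitness as the error-weighted combination of fold changes across replicates, kanamycin versus no kanamycin, normalised to wild type. E. coli BL21(DE3) held the library, which randomised all eight P1ex-region intron nucleotides within the knt kanamycin-resistance gene on pET-22b(+). Six replicate transformations grew overnight at 37°C or 30°C on LB agar with or without 25 μg/mL kanamycin, also containing 100 μg/mL carbenicillin, 50 μM IPTG and 0.2% rhamnose, and pooled colonies were amplicon-sequenced on an Illumina HiSeq 2500.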

Row | Sequence | self-splicing fitness (ln) (30 °C) | self-splicing fitness (ln) (37 °C)
1 | CUUUAGCAAUAUUACGACGU | -3.69 ± 0.38 | -1.86 ± 0.3
2 | UCCAAGCAAUAUUACGCCUA | -0.968 ± 0.12 | 0.0562 ± 0.1
3 | UUGCAGCAAUAUUACGGCGC | -1.8 ± 0.24 | -1.84 ± 0.31
4 | GGGGAGCAAUAUUACGAUUC | -1.52 ± 0.16 | -0.791 ± 0.2
5 | GCCAAGCAAUAUUACGCUAA | -0.682 ± 0.099 | -1.37 ± 0.13
6 | CUACAGCAAUAUUACGCAGU | -3.78 ± 0.24 | -2.32 ± 0.22
7 | UUUUAGCAAUAUUACGUGAA | -1.14 ± 0.074 | -0.89 ± 0.1
8 | UGGGAGCAAUAUUACGAUCG | -1.33 ± 0.13 | -0.561 ± 0.15
9 | GCAAAGCAAUAUUACGGAAC | -1.63 ± 0.18 | -0.635 ± 0.17
10 | AAUAAGCAAUAUUACGGAUG | -2.21 ± 0.1 | -1.39 ± 0.1
11 | CCACAGCAAUAUUACGUGCA | -4.24 ± 0.24 | -2.5 ± 0.12
12 | CCGAAGCAAUAUUACGAUAC | -3.86 ± 0.47 | -1.95 ± 0.26
13 | CGCGAGCAAUAUUACGGCUA | -1.23 ± 0.15 | -1.98 ± 0.16
14 | CCAGAGCAAUAUUACGCCUG | – | -2.66 ± 0.36
15 | AUUAAGCAAUAUUACGGGUC | -2.81 ± 0.21 | -3.49 ± 0.37
16 | UAAAAGCAAUAUUACGCCCC | -3.1 ± 0.49 | 0.13 ± 0.35
17 | AGGUAGCAAUAUUACGCUCU | -2.37 ± 0.024 | -1.45 ± 0.038
18 | CUGCAGCAAUAUUACGUGUC | -4.46 ± 0.28 | -2.79 ± 0.29
19 | CGGCAGCAAUAUUACGGGCC | -1.55 ± 0.2 | -1.98 ± 0.32
20 | GACCAGCAAUAUUACGGGCC | -3.69 ± 0.15 | -2.26 ± 0.21
21 | GAGAAGCAAUAUUACGCAAC | -1.48 ± 0.14 | -2.11 ± 0.26
22 | GUACAGCAAUAUUACGAAUA | -3.26 ± 0.22 | -1.67 ± 0.13

Row | Sequence | self-splicing fitness (ln) (30 °C) | self-splicing fitness (ln) (37 °C)
23 | UACAAGCAAUAUUACGUUGG | -3.19 ± 0.12 | -1.41 ± 0.1
24 | GGCUAGCAAUAUUACGGAUG | -0.642 ± 0.13 | -0.56 ± 0.15
25 | GUCAAGCAAUAUUACGGCGU | -1.04 ± 0.083 | -0.0377 ± 0.1
26 | AAUGAGCAAUAUUACGGCAG | -2.62 ± 0.24 | -1.87 ± 0.46
27 | AUGUAGCAAUAUUACGCCGA | -2.44 ± 0.2 | -0.724 ± 0.16
28 | CUGUAGCAAUAUUACGAUAU | -4.06 ± 0.32 | -2.75 ± 0.32
29 | AGUUAGCAAUAUUACGACGA | -0.101 ± 0.18 | -0.368 ± 0.14
30 | ACGCAGCAAUAUUACGGGGC | -3.8 ± 0.24 | -3.15 ± 0.28
31 | UCGGAGCAAUAUUACGUAGG | -1.78 ± 0.13 | -0.619 ± 0.15
32 | GCUCAGCAAUAUUACGCCAA | -1.52 ± 0.42 | –
33 | CCUUAGCAAUAUUACGACCA | -2.66 ± 0.36 | –
34 | GUUAAGCAAUAUUACGAAUA | -1.19 ± 0.25 | -0.46 ± 0.32
35 | GUCGAGCAAUAUUACGUCCC | -1.03 ± 0.19 | -0.687 ± 0.33
36 | ACGCAGCAAUAUUACGGCGA | -0.895 ± 0.1 | -0.0901 ± 0.14
37 | CACCAGCAAUAUUACGACGG | -0.253 ± 0.078 | 0.0217 ± 0.091
38 | GAGCAGCAAUAUUACGACAA | -1.41 ± 0.3 | -2.31 ± 0.2
39 | CUCAAGCAAUAUUACGUCAG | -1.5 ± 0.077 | -0.908 ± 0.099
40 | CUCUAGCAAUAUUACGACAC | – | -2.49 ± 0.25
41 | UGGAAGCAAUAUUACGAGCG | 0.103 ± 0.11 | 0.127 ± 0.15
42 | CCCAAGCAAUAUUACGUCUG | -3.87 ± 0.19 | -2.18 ± 0.21
43 | AUUGAGCAAUAUUACGCUUG | -2.91 ± 0.18 | -0.989 ± 0.18
